Source: the supplement of paper PMC12042874
± gives the uncertainty stated by the source.

Assay: amyloid nucleation score (Sup35N fusion, yeast selection) (log enrichment); library NNK3; higher = more nucleation; inactive = no reads after selection
Procedure, shortened: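 In psi-negative yeast, Sup35N fusions carrying peptides of 20 random codons were induced with 100 μM copper sulfate for 24 hours. The cells then grew 7 days at 30°C on medium lacking adenine and uracil, and plasmid inserts from input and output were Illumina-sequenced, excluding sequences with under 100 input reads. Nucleation score is the DiMSum log enrichment of output over input reads, centred on the mode score of non-aggregating sequences.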

| Substance | amyloid nucleation score |
| --- | --- |
| RFVGSGCSGWCSRARDLWWL | inactive |
| GLLMSMRSFFSGQVQNGAVL | inactive |
| HGFMI | inactive |
| PVNIVCTVNSLSGSYED | inactive |
| TYLVMS | inactive |
| YVNECFSVSLICCYMLFYN | 1.52 ± 0.072 |
| WSVITT | inactive |
| WWHVIMYTGHKCNLSCDSVG | inactive |
| VNTEG | inactive |
| VLGVEECGYWLD | inactive |
| YLLMTGVWWYYQMCVVVYM | inactive |
| KRSNISV | inactive |
| SYGTSGCRRLVLWTYDSKFI | inactive |
| MALEVFF | inactive |
| IATDRSSKVLSFHT | inactive |
| NLKFRRFTGNMCSTPKVCLK | inactive |
| QHNLRDGMFLNGTYRNDAVR | inactive |
| FLDEFLWSCGIGFLRFIKDV | inactive |
| DRHSTYCLAS | inactive |
| ELVCVA | inactive |
| LFRLKNRFEDKVGNSIRLWE | inactive |
| TWCSIMDLLVQLRVRNLFGK | inactive |
| LQCLVSAKCNFCMYR | 0.869 ± 0.19 |
| RLRLYFRLTKNFHSMNHW | inactive |

| Substance | amyloid nucleation score |
| --- | --- |
| CRDNTGFCRGSAAVFNRCTG | inactive |
| IRGIVV | inactive |
| LERTNWCQYHL | inactive |
| FNVRRHHYYGMCPLLISRVR | inactive |
| CLATN | inactive |
| TSFWGGALEDSATITLECWF | -0.24 ± 1.3 |
| AYWCG | inactive |
| LFCIWSSVLVRVHVFQKW | inactive |
| HQVNVLWQVYILAFSLTSRH | inactive |
| DPTIVIGDQPIRLRPSVCQM | inactive |
| CCLFMLFMRMRTHL | inactive |
| TFGAVTCMSRCVKSSYNLKW | 1.35 ± 0.088 |
| IVVRPR | 1.24 ± 0.17 |
| YPHREQVRRSL | inactive |
| VNLYGSRL | inactive |
| AIKYILRAALNLNSSSTELE | inactive |
| CDSLHNDAVYTSLGAWANHP | inactive |
| TILWFSSNETFYAGIHRSCP | inactive |
| ALWNTFFLCENTFRMVGFVC | inactive |
| SVDWYNFECSIASPF | inactive |
| YCLRSSTGSEVRQWDDDSFK | inactive |
| KVIDSLVVSRLLTCASRHIR | 1.32 ± 0.077 |
| CQKRETVFIKRD | inactive |
| LNYFISLSGRSLPVSCNQIY | inactive |

| Substance | amyloid nucleation score |
| --- | --- |
| RVSWGARVHIWCSLDLVCRF | inactive |
| ISHFTARFVSPPMQWLRTCF | inactive |
| IPLLNVFSTRRSTCLEGSFT | inactive |
| GCNREGTYSRPVLTATNGG | -0.152 ± 0.93 |
| LLGVWG | 0.217 ± 0.53 |
| WLIKYPGYW | inactive |
| ARKLFCQTVEENHS | inactive |
| PVVHFLWSLYRNLVCVDGKV | inactive |
| RRLHSIAFVHRCLIIICCMG | inactive |
| RRNMWG | inactive |
| TTSVIAGLW | inactive |
| TYMCQVFNILDSQKYCYMRR | inactive |
| ASNSIKWFADHFPHSFVN | inactive |
| TGSSTDLSNYNGLGYLLNNS | 0.479 ± 0.2 |
| WNCGSPPR | inactive |
| VRALNTAAWLSNTRCLGMDA | inactive |
| SEHMNGWHHNLTQCEENFRN | inactive |
| LNELHMFSGPAYLFSVFRDM | inactive |
| IWVLSCRLISRTRFICDRRM | 0.057 ± 0.93 |
| LGGLCL | inactive |
| MYLVR | inactive |
| YNVSINYVGENDGWEACFLS | 0.666 ± 0.12 |
| DLQLRNWCLWVSWWN | inactive |
| ITFNRSSSKNCSQKVKGRTL | inactive |

| Substance | amyloid nucleation score |
| --- | --- |
| IKMGVRYGRNTVWTARCGSG | 0.222 ± 0.6 |
| YLDRKVCSGNALRYLK | inactive |
| PVSAH | 1.08 ± 0.17 |
| PVHSFNLAIYMRLFHVWPVF | inactive |
| NNSTRLIWWCMVKMRYNHCE | inactive |
| IMTVILSPLLTCNYFCCR | 2.35 ± 0.085 |
| KSFSHGLFDLRGKRTVEICL | inactive |
| GQWELGHFQCKVPYLLSQLL | inactive |
| VAQFDRNLKPKVNYAVNELQ | inactive |
| WYWSSNPSGTDVGIDGVRIS | inactive |
| TWEVYTMCIRNGGVLGLFIF | inactive |
| TSGAANHYLYSSVSWTFFLL | 0.764 ± 0.19 |
| YGTSATKRTALFWYDMTKFG | inactive |
| WGRGNAAMYGVFRSGNLLVI | inactive |
| RCIYTMVWVTNVNMVRRTGA | 1.69 ± 0.084 |
| ITVVQANMSVWSTARVDMLD | 1.12 ± 0.16 |
| MSGNA | inactive |
| WRSASGVD | inactive |
| TYVVMGFRCETFRIHNGLRR | inactive |
| SIGNAVYMIVGITGVRRRIY | inactive |
| CHMWSEHSTTLMYYSKKY | 0.199 ± 0.41 |
| FVRGCSRNSTRDCFYK | inactive |
| SFVVN | inactive |
| TAMYVMSFCW | inactive |

| Substance | amyloid nucleation score |
| --- | --- |
| YNLRYLVYYLDLLSPVNQMG | inactive |
| NLPVF | inactive |
| MKYYVR | inactive |
| SDIMNDH | inactive |
| CIPCTVTFG | inactive |
| ACYAAQCWSNF | inactive |
| RLAGCYYIP | inactive |
| GYKDIDLTSERGK | inactive |
| FLFSWEKFVCLCCILY | 0.32 ± 0.49 |
| AFRSTSQYVY | inactive |
| IHHKLVDL | inactive |
| GFMHTVRCIRIEPPQCRAVV | inactive |
| LWVSLFVSDVTRLFCLGFVT | inactive |
| HFYYPLCWVCSVLLSHLVPD | inactive |
| VFNLLYVGFHVDSIGVGCVI | 1.97 ± 0.096 |
| YTPGLPSDFN | inactive |
| SLGSMAAVLSPSTAERPANL | inactive |
| RQLTLSRITNLSLK | inactive |
| FVHQRYRAQIIRLLPTSWGC | inactive |
| RTDFHPLYLILWNQRK | 1.9 ± 0.098 |
| IRTIIQKKMWACDHVFGSPA | inactive |
| FGTPMVNVCMPS | inactive |
| SNPGAMSMCEYGGLFSRWLY | -0.516 ± 0.96 |
| KVLASCLSHFVDPNLEVSFH | inactive |

| Substance | amyloid nucleation score |
| --- | --- |
| RTKKY | inactive |
| SYMGHV | 0.506 ± 0.43 |
| LYLRQKYLRALTNFNFPRAT | inactive |
| EAEGNINTRGTHRCLYGSFK | inactive |
| SLCLVSLLCFSFRCNDGKWR | 1.38 ± 0.084 |
| LNFWTIAWARWRIFLCSVLQ | inactive |
| FWQSIYDGMGSVIFHHGFTQ | 0.434 ± 0.14 |
| RFLLLRSCMSIDWRVGLEIF | inactive |
| PCFLTNEDFYMKFTRN | inactive |
| EDYLFHLLRDPRRTGWLIWF | inactive |
| TWSGQGHR | inactive |
| YLFSELYMLNLSRFAK | inactive |
| SLIIDKGPDVYCSWTVERIT | inactive |
| MYERRSLDKKVHRCYILALT | inactive |
| MTFIRPKLGKKPGMYGTNIV | inactive |
| QTMDTYLWLAR | -0.083 ± 1.1 |
| YVVREHYNGCATPN | inactive |
| RELYFSYDSLDYLGMRVWML | inactive |
| CRNKFLVKGAFTRGSREN | inactive |
| SLYVHRSIANGF | inactive |
| HICLA | inactive |
| FLEWEGFRVCIENHMELLRF | inactive |
| SNVVYMKYRMAVLVTLGICG | inactive |
| GRNRHTYDRLYCPFVRSLIV | inactive |

| Substance | amyloid nucleation score |
| --- | --- |
| GFYAE | inactive |
| MRGWLRLSELCKGVLIVGFA | inactive |
| MWPNITLFFSWRTEVLLYLI | inactive |
| ASILRTKMLVCKGGKILQLQ | inactive |
| SFFEYLPTQPTR | inactive |
| LDWLICSWGN | inactive |
| AFYVVLTNTVYVGWLQE | inactive |
| YQLFWRLALFCPVYGCVYLM | -0.027 ± 0.35 |
| CIGTI | inactive |
| IYLNFNKILLMILQIQLWGN | -0.19 ± 0.64 |
| VKVEPVRLLWTHVWKS | inactive |
| SEMLFIDQLCSSSVSKYTVI | inactive |
| NCSSVPVSALFGEGVRKTPS | inactive |
| RFVTRCREDSVTLKHG | inactive |
| YRLAN | inactive |
| ADVDCFTVNLVYSRYAFVTT | inactive |
| LTRLSRNHVVRWRYIREGGW | inactive |
| RKDLCDFSYLHGDPGAKPEL | inactive |
